Reference: patent US20260116991A1 (HAINAN SIMCERE ZAIMING PHARMACEUTICAL, published 2026)

T1: polypeptide GC3pep (human)
T1 construct: also called membrane proximal polypeptide GC3pep
T1 peptide: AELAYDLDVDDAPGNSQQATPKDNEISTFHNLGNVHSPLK


Columns and labels:
[1] = molecular target: T1, polypeptide GC3pep; assay: ELISA, GC3pep coated, antibody 1 nM;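 also: bound antibody detected with an HRP-conjugated secondary antibody and TMB substrate, reaction stopped with HCl, after 2 h binding at 37 °C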
Protocol: (§1) The plate was sealed with a plastic film and incubated at 4° C. overnight, washed twice with PBS the next day, and a blocking solution [PBS+2% (w/w) BSA] was added for blocking at room temperature for 2 h. […] After incubation at 37° C. for 2 h, the plate was washed 3 times with PBS. A horseradish peroxidase (HRP)-labeled secondary antibody (purchased from Merck, Cat. No. AP113P) was added for incubation at 37° C. for 1 h, and the plate was washed 5 times with PBS. A TMB substrate was added at 50 μL/well for incubation at room temperature for 10 min, then a stop solution (1.0M HCl) was added at 50 μL/well.

[2] = molecular target: T1, polypeptide GC3pep; assay: ELISA, GC3pep coated, antibody 10 nM;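 also: antibody bound to the coated peptide for 2 h at 37 °C, detected through an HRP-conjugated secondary antibody with TMB colour development stopped by acid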
[3] = molecular target: T1, polypeptide GC3pep; assay: ELISA, GC3pep coated, antibody 0.1 nM;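 also: antibody allowed to bind the coated plate 2 h at 37 °C, then detected via HRP-conjugated secondary antibody and TMB development for 10 min, stopped with HCl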
Protocol: as §1

[4] = molecular target: T1, polypeptide GC3pep; assay: ELISA, GC3pep coated, antibody 100 nM;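 also: detection with an HRP-conjugated secondary antibody and TMB substrate, color reaction stopped with HCl before absorbance reading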
Protocol: as §1

[5] = molecular target: T1, polypeptide GC3pep; assay: ELISA, GC3pep coated, antibody 0.01 nM;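 also: bound antibody detected with an HRP-conjugated secondary antibody and TMB substrate, color reaction stopped with HCl before reading absorbance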
[6] = molecular target: T1, polypeptide GC3pep; assay: ELISA, GC3pep coated, antibody 0.001 nM
[7] = molecular target: T1, polypeptide GC3pep; assay: ELISA, GC3pep coated, antibody 0.0001 nM
[8] = molecular target: T2, murine GPC3-His protein (murine, UniProt Q8CFZ4 25-558, limits assumed); assay: SPR, antibody captured on Protein A chip, murine GPC3-His injected
T2 construct: bought protein; also called murine GPC3 protein
T2 sequence (Q8CFZ4 25-558 limits assumed): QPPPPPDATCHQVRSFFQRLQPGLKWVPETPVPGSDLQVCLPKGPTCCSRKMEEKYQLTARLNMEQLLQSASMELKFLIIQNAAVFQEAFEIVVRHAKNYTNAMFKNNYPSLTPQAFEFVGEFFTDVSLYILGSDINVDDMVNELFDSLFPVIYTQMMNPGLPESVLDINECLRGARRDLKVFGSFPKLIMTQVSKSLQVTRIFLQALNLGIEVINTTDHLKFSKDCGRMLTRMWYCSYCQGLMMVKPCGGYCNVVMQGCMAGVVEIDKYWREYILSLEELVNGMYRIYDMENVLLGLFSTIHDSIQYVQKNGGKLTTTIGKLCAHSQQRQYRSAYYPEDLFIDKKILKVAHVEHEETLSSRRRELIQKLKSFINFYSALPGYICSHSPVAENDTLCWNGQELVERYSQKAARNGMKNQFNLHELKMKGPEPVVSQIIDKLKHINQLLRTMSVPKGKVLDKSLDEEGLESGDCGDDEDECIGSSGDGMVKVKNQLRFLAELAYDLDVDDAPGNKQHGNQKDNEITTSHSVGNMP
Protocol: The flow cell was set at 25° C. The sample block was set at 16° C. Both were pretreated with the running buffer. In each cycle, first, the antibody to be tested was captured using the Protein A chip, and then a single concentration of GPC3 antigen protein was injected. […] The association was determined by injecting different concentrations of human GPC3-His in the solution and maintaining for 240 s, wherein the flow rate was 30 μL/min, and the protein was diluted at a 1:1 dilution ratio from 200 nM to obtain 5 concentrations in total. The dissociation phase was monitored for up to 600 s and triggered by switching from the sample solution to the running buffer. The surface was regenerated by washing with 10 mM glycine solution (pH 1.5) at a flow rate of 30 μL/min for 30 s. The difference in bulk refractive index was corrected by subtracting the responses obtained from the goat anti-human Fc surface. Blank injections (double reference) were also subtracted. To calculate the apparent KD and other kinetic parameters, the Langmuir 1:1 model was used.

[9] = molecular target: T3, GPC3 on HepG2 cells (human, UniProt P51654 25-554); assay: FACS on HepG2 cells
T3 construct: whole, on cells; also called glypican-3

[10] = molecular target: T4, monkey GPC3-His protein (monkey); assay: ELISA, monkey GPC3-His coated; antibody 0.02 nM
T4 construct: Bought protein; also called monkey GPC3 protein
Protocol: (§2) The specific method is described as follows: The antigen protein was diluted with PBS to a final concentration of 1 μg/mL, and the diluent was added to a 96-well ELISA plate at 50 μL/well. The plate was sealed with a plastic film and incubated at 4° C. overnight, washed twice with PBS the next day, and a blocking solution [PBS+2% (w/w) BSA] was added for blocking at room temperature for 2 h. […] After incubation at 37° C. for 2 h, the plate was washed 3 times with PBS. A horseradish peroxidase (HRP)-labeled secondary antibody (purchased from Merck, Cat. No. AP113P) was added for incubation at 37° C. for 1 h, and the plate was washed 5 times with PBS. A TMB substrate was added at 50 μL/well for incubation at room temperature for 10 min, then a stop solution (1.0M HCl) was added at 50 μL/well.

[11] = molecular target: T4, monkey GPC3-His protein; assay: ELISA, monkey GPC3-His coated; antibody 0.11 nM
Protocol: as §2

[12] = molecular target: T4, monkey GPC3-His protein; assay: ELISA, monkey GPC3-His coated; antibody 0.53 nM
Protocol: as §2

[13] = molecular target: T4, monkey GPC3-His protein; assay: ELISA, monkey GPC3-His coated; antibody 2.67 nM
Protocol: as §2

[14] = molecular target: T4, monkey GPC3-His protein; assay: ELISA, monkey GPC3-His coated; antibody 0.004 nM
Protocol: as §2

[15] = molecular target: T4, monkey GPC3-His protein; assay: ELISA, monkey GPC3-His coated; antibody 13.33 nM
Protocol: as §2

[16] = molecular target: T4, monkey GPC3-His protein; assay: ELISA, monkey GPC3-His coated; antibody 66.66 nM
Protocol: as §2

[17] = molecular target: T4, monkey GPC3-His protein; assay: ELISA, monkey GPC3-His coated; antibody 0.0008 nM
Protocol: as §2

[18] = molecular target: T5, murine GPC3-his protein (murine, UniProt Q8CFZ4 25-558, limits assumed); assay: ELISA, murine GPC3-his coated; antibody 0.02 nM
T5 construct: Bought protein; also called mouse GPC3 protein; murine GPC3 protein; not shown: His tag
T5 sequence (Q8CFZ4 25-558 limits assumed): as above

[19] = molecular target: T5, murine GPC3-his protein; assay: ELISA, murine GPC3-his coated; antibody 0.11 nM
Protocol: as §2

[20] = molecular target: T5, murine GPC3-his protein; assay: ELISA, murine GPC3-his coated; antibody 0.53 nM
Protocol: as §2

[21] = molecular target: T5, murine GPC3-his protein; assay: ELISA, murine GPC3-his coated; antibody 2.67 nM
Protocol: as §2

[22] = molecular target: T5, murine GPC3-his protein; assay: ELISA, murine GPC3-his coated; antibody 0.004 nM
Protocol: as §2

[23] = molecular target: T5, murine GPC3-his protein; assay: ELISA, murine GPC3-his coated; antibody 13.33 nM
Protocol: as §2

[24] = molecular target: T5, murine GPC3-his protein; assay: ELISA, murine GPC3-his coated; antibody 66.66 nM
Protocol: as §2

[25] = molecular target: T5, murine GPC3-his protein; assay: ELISA, murine GPC3-his coated; antibody 0.0008 nM
Protocol: as §2

Binder	OD450 nm [1]	OD450 nm [2]	OD450 nm [3]	OD450 nm [4]	OD450 nm [5]	OD450 nm [6]	OD450 nm [7]	Kd [8]	koff [8]	kon [8]	EC50 [9]	Max MFI [9]	OD450 nm [10]	OD450 nm [11]	OD450 nm [12]	OD450 nm [13]	OD450 nm [14]	OD450 nm [15]	OD450 nm [16]	OD450 nm [17]	other results
F1.111.11 (antibody, human IgG1, kappa, V domains shown, human-murine chimeric antibody) VH: EVQLQQSGPELVKPGASVKISCKASGYTFTDYYMNWVKQSHGKSLEWIGDIYPNNGDTTYNQRFKGKATLTVDKSSSTAYMELRSLASEDSAVYYCACPYNNPFGYWGQGTLVTVSA VL: DVVMTQTPLSLPVSLGDQASISCRSSQSLVHSNGNTYLHWYLQKPGQSPKLLIYKVSNRFSGVPDRFSGSGSGTDFTLKISRVEAEDLGVYFCSQSTHVPWTFGGGTKLEIKR	0.06 OD450 nm	0.06 OD450 nm	0.06 OD450 nm	0.15 OD450 nm	0.05 OD450 nm	0.06 OD450 nm	0.06 OD450 nm	3.47 nM	0.00045 s⁻¹	129000 M⁻¹ s⁻¹	–	–	–	–	–	–	–	–	–	–	–
F4.26.1 (antibody, human IgG1, kappa, V domains shown, human-murine chimeric antibody) VH: QVQLKQSGPGLVQPSQSLSITCTVSGFSLTSYGVHWVRQSPGKGLEWLGVIWSSGNTDYNAVLISRLSIKKDDSKSQVFFKMNSPQVDDSAIYYCGRNGGWLLRGFMDFWGQGTSVTVSS VL: DVVMTQTPLSLPVSLGDQASISCRSSQSLLHSNGNTYLHWYLQRSGQSPNLLIYKVSNRFSGVPDRFSGGGSGTDFTLKISRVEAEDLGIYFCSQSTHVPWTFGGGTKLEIKR	0.28 OD450 nm	0.04 OD450 nm	0.08 OD450 nm	0.12 OD450 nm	0.16 OD450 nm	0.19 OD450 nm	0.05 OD450 nm	1.46 nM	0.00072 s⁻¹	492000 M⁻¹ s⁻¹	–	–	–	–	–	–	–	–	–	–	–
hAb007LH2L1b (antibody, human IgG1, V domains shown, Humanized F3.81.19, H2+L1b) VH: EVQLVQSGAEVKKPGSSVKVSCKASGYTFTDYEMHWVRQAPGQGLEWMGTIDPETGNTAYNQKFKGRVTITADKSTSTAYMELSSLRSEDTAVYYCTRPYSLTYWGQGTLVTVSS VL: DIVMTQTPLSLPVTPGEPASISCRSSQSFVHSNRDTYLQWYLQKPGQSPQLLIYKVSNRFSGVPDRFSGSGSGTDFTLKISRVEAEDVGVYYCFQGSHVPYTFGQGTKLEIK	–	–	–	–	–	–	–	–	–	–	9.53 nM	5320	0.32	0.967	2.09	2.35	0.127	2.56	2.61	0.08	–
hAb005LH1L1b (antibody, human IgG1, V domains shown, Humanized F3.54.12, H1+L1b) VH: EVQLVQSGAEVKKPGASVKVSCKASGYTFTDYEMHWVRQAPGQGLEWMGAIDPETGNTAYIQKFKGRVTMTTDKSTSTAYMELRSLRSDDTAVYYCTRFYSYSHWGQGTTVTVSS VL: DIVMTQTPLSLPVTPGEPASISCRSSQSLVHSNRNTYLHWYLQKPGQSPQLLIYKVSNRFSGVPDRFSGSGSGTDFTLKISRVEAEDVGVYYCSQNTHVPPTFGGGTKVEIK	–	–	–	–	–	–	–	–	–	–	1.01 nM	4800	0.664	0.949	1.09	1.11	0.215	1.16	1.16	0.107	–
hAb001H1L1 (antibody, human IgG1, V domains shown, Humanized F2.169.2, H1+L1) VH: EVQLVESGGGLVQPGGSLRLSCAASGFSFNTNAMNWVRQAPGKGLEWVGRIRSKSNNYATYYADSVKDRFTISRDDSKNSLYLQMNSLKTEDTAVYYCVRDGYYVLFAYWGQGTLVTVSS VL: DIVMTQTPLSLPVTPGEPASISCRFSQSIVNSNGNTYLEWFLQKPGQSPQLLIYKVSNRFSGVPDRFSGSGSGTDFTLKISRVEAEDVGVYYCFQGSHVPFTFGQGTKLEIK	–	–	–	–	–	–	–	–	–	–	–	–	1.08	1.96	2.46	2.54	0.373	2.55	2.55	0.198	OD450 nm [18]: 1.32; OD450 nm [19]: 2.31; OD450 nm [20]: 2.8; OD450 nm [21]: 2.69; OD450 nm [22]: 0.48; OD450 nm [23]: 2.82; OD450 nm [24]: 2.64; OD450 nm [25]: 0.239
hAb003LH2L1b (antibody, human IgG1, V domains shown, Humanized F2.154.1, H2+L1b) VH: EVQLVQSGAEVKKPGSSVKVSCKASGYRFTDYEMHWVRQAPGQGLEWMGTIDPETGNTAYTQKFMDRVTITADKSTSTAYMELSSLRSEDTAVYYCTRGYSFTYWGQGTLVTVSS VL: DIVMTQTPLSLPVTPGEPASISCRSSQNIVHSNRNTYLQWYLQKPGQSPQLLIFKVSNRFSGVPDRFSGSGSGTDFTLKISRVEAEDVGVYYCFQGSHVPFTFGQGTKLEIK	–	–	–	–	–	–	–	–	–	–	0.84 nM	4620	1.1	1.96	2.3	2.36	0.386	2.27	2.35	0.185	–
hAb006LH3L1b (antibody, human IgG1, V domains shown, Humanized F3.38.7, H3+L1b) VH: EVQLVQSGAEVKKPGSSVKVSCKASGYTFTDYEIHWVRQAPGQGLEWMGAIDPKTGNTAYNQKFMGRVTLTADKSTSTAYMELSSLRSEDTAVYYCTRYFSFAYWGQGTLVTVSS VL: DIVMTQTPLSLPVTPGEPASISCRSSQTFVHSNANTYLQWYLQKPGQSPQLLIYKVSNRFSGVPDRFSGSGSGTDFTLKISRVEAEDVGVYYCFQGSHVPYTFGQGTKLEIK	–	–	–	–	–	–	–	–	–	–	1.49 nM	4610	1.01	1.99	2.56	2.55	0.306	2.38	2.67	0.125	–
F1.145.22 (antibody, human IgG1, kappa, V domains shown, human-murine chimeric antibody) VH: QVQLQQSGTDLARPGASVKLSCKASGYTFTSFGISWVKQRTGQGLEWIGEIYPRSGSPYYNEKFTGKATLTADKSSSTAYMELRSLTSEDSAVYFCAKDFGSSYVFDYWGQGTALTVSS VL: DIQMTQSPASLSASVGETVTITCRASENIYSYLTWYQQKQGKSPQLLVYNAKTLAEGVPSRFSGSGSGTQFSLKINSLQPEDFGTYYCQHHYGTPPTFGTGTKLDLKR	0.04 OD450 nm	0.05 OD450 nm	0.04 OD450 nm	0.11 OD450 nm	0.04 OD450 nm	0.04 OD450 nm	0.04 OD450 nm	6.87 nM	0.00173 s⁻¹	251000 M⁻¹ s⁻¹	–	–	–	–	–	–	–	–	–	–	–
